According to publication PMC2762204 (Cancer research, 2009):
Changes are numbered by the printed parent chain.

B1: FLAG-Sprouty2 2A (S111 and S120 to alanines) (natural protein, mouse, UniProt Q9QXV8 1-315, looked up)
chain: MEARAQSGNGSQPLLQTAHDSGRQRGEPDPRDALTQQVHVLSLDQIRAIRNTNEYTEGPTVVPRPGLKPAPRPSTQHKHERLHGLPEHRQPPRLQPSQVHSSRAPLSRSIATVSSGSRSATRTSTSSSSSEQRLLGPSFSHGPAAADGIIRVQPKSELKPGDVKPLSKDDLGLHAYRCEDCGKCKCKECTYPRPLPSDWICDKQCLCSAQNVIDYGTCVCCVKGLFYHCSNDDEDNCADNPCSCSQSHCCTRWSAMGVMSLFLPCLWCYLPAKGCLKLCQGCYDRVNRPGCRCKNSNTVCCKVPTVPPRNFEKPT
B2: FLAG-Sprouty2 6A (all six serine sites to alanines) (natural protein, mouse, UniProt Q9QXV8 1-315, looked up)
chain: B1 chain with S7A, S42A, S140A, S167A

Key:
[1] = target: FLAG-Sprouty2 co-expressed with active MEK:EE (phosphorylated) (mouse) (UniProt Q9QXV8); assay: pull-down
[2] = target: Myc-B-Raf wild-type (UniProt P15056 1-766); assay: co-IP
Myc-B-Raf wild-type, sequence (P15056 whole entry): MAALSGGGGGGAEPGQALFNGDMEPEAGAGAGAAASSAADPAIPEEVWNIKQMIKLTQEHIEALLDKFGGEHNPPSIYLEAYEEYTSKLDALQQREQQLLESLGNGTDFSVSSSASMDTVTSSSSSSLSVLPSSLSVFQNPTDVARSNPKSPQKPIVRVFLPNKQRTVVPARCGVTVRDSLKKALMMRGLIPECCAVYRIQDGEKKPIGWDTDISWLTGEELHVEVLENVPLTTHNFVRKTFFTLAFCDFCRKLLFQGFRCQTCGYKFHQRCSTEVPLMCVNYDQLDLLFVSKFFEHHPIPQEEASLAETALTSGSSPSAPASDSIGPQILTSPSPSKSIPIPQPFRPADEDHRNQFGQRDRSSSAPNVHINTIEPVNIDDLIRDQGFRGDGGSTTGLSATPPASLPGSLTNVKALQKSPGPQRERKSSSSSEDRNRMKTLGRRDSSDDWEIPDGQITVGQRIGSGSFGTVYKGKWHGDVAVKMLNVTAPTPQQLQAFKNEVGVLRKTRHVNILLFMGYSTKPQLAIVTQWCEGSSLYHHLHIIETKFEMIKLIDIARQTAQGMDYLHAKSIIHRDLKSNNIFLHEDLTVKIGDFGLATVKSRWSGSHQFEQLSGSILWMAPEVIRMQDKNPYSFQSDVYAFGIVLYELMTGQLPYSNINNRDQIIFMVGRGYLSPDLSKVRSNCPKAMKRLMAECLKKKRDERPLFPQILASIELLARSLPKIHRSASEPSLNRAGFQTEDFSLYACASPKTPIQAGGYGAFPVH

| Molecule | percent reduction of binding against Sprouty2 expressed without MEK:EE [1] | fold change of B-Raf binding against wild-type Sprouty2 [2] |
| --- | --- | --- |
| Recombinant human wild-type GST-B-Raf catalytic domain (domain or fragment) | 40% |  |
| B1 |  | ~2 fold |
| B2 |  | ~3.5 fold |
